Test results taken from US20160289685.

T1: Recombinant human STAT1α (OriGene Technologies, Inc.), P42224
T1 chain: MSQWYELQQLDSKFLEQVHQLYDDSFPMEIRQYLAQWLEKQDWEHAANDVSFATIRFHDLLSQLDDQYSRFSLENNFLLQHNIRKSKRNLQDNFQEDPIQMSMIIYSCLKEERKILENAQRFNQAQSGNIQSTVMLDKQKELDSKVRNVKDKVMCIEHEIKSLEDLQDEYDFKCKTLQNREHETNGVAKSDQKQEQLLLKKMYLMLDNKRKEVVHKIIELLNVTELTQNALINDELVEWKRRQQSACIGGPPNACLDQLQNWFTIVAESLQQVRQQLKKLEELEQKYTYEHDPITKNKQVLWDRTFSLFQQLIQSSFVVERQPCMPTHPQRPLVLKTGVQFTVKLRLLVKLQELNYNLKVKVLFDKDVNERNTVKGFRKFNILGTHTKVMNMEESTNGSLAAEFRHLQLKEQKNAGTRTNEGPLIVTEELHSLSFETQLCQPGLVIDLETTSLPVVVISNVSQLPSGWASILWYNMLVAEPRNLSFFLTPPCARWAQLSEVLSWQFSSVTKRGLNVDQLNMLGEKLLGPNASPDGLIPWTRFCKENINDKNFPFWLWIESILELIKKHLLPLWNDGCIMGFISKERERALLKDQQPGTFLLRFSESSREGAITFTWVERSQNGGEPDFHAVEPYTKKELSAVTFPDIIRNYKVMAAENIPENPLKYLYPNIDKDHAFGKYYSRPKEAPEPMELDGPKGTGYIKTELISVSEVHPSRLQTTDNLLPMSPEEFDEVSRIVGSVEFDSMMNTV


What was measured:
[1] = target: Recombinant human STAT1α (OriGene Technologies, Inc.) (UniProt P42224)
[2] = target: T1, Recombinant human STAT1α (OriGene …)

Row | Molecule | ADP-ribosylation (protein ribosylation assay) [1] | ADP-ribosylation (protein ribosylation assay, Western blot with Streptavidin-HRP) [2] | mono-ADP-ribosylation sites by LC-MS/MS [2]
1 | Recombinant human PARP9 (BPS Bioscience Inc.) | PARP9 did not ADP-ribosylate STAT1α | – | –
2 | Recombinant human PARP14 (BPS Bioscience Inc.) (protein) KEYQELNELQKKLNINISLDHKRPLIKVLGISRDVMQARDEIEAMIKRVRLAKEQESRADCISEFIEWQYNDNNTSHCFNKMTNLKLEDARREKKKTVDVKINHRHYTVNLNTYTATDTKGHSLSVQRLTKSKVDIPAHWSDMKQQNFCVVELLPSDPEYNTVASKFNQTCSHFRIEKIERIQNPDLWNSYQAKKKTMDAKNGQTMNEKQLFHGTDAGSVPHVNRNGFNRSYAGKNAVAYGKGTYFAVNANYSANDTYSRPDANGRKHVYYVRVLTGIYTHGNHSLIVPPSKNPQNPTDLYDTVTDNVHHPSLFVAFYDYQAYPEYLITFRK | – | Recombinant PARP14 protein induced ADP-ribosylation of PARP14 itself, PARP9, and STAT1α | Glu657 and Glu705 of STAT1α were mono-ADP-ribosylated by PARP14
